Stoichiometry N, stoichiometry N (PduL dimers per PduA trimer of hexamers) and stoichiometry N (PduL dimer per PduA hexamer) data for 3 molecules are collected here from paper PMC11157265.

Assay [1] concerns the target PduA* (Citrobacter freundii PduA with a C-terminal 23 residue extension) (C. freundii). The experiment in a line: native gel or EMSA; PduA and variants alone on native PAGE run at pH 8.5, 4 °C; low mobility = tessellated, high mobility = not tessellated; step: hexamer with hexamer (tessellation).
The next assay concerns the target PduA* A63R (C. freundii). The experiment in a line: native gel or EMSA; PduA, A63R and A^GGSST alone on native gel run at pH 9.5; mobility tells tessellated from not tessellated; step: hexamer with hexamer (tessellation). A general note: Mobility shift assays separate free from complexed probe on a gel.
For assay [2], the target named is PduA* (Citrobacter freundii PduA with a C-terminal 23 residue extension) (C. freundii). As to the kind of experiment: native gel or EMSA; titration of PduL into PduA trimer of hexamers on a native gradient gel (higher resolution).
For assay [3] the target is unchanged. The experiment in a line: native gel or EMSA; titration of tagless PduL into His-tagged PduA on a 6% acrylamide native gel, with anti-His Western blot to locate PduA.

In general, stoichiometry N refers to the number of molecules, sites or subunits per partner or assembly. For “PduA* (Citrobacter freundii PduA with a C-terminal 23 residue extension) (natural protein)”, in assay [1], the stoichiometry N is 3 hexamers. In the assay with PduA* A63R (C. freundii), PduA* A63R (natural protein) displayed a stoichiometry N of 3 hexamers.

B1: PduL (Citrobacter freundii), His-tag cleaved (enzyme)
chain: MDKQQLETTVTKVLDEMRERPIPLGISNRHIHLCAEDYDRLFPNHPISEKKELLQPGQYAADQTVTLVGPKGQLKNVRLLGPLRSTSQVEISRTDARTLGIAAPLRMSGSIEGTPGVRLISPFAELDLASGVIVAQRHIHMSPLDALILRVSHGDKVSVAINGDERRLIFDNVAVRVSPDMRLEMHIDTDEANAAGADNPQAFATLVSPR
In turn, B1 yielded a stoichiometry N (PduL dimers per PduA trimer of hexamers) in assay [2] of 3. The same molecule yielded a stoichiometry N (PduL dimer per PduA hexamer) in assay [3] of 1.
